Values of other authors, collected in PMC5323041.
pKd: −log10 of the molar value. Like-named read-outs stand apart in the source and are kept apart here.

Key:
[1] = target: oxytocin (Mus musculus) (UniProt P35454)
[2] = target: oxytocin (Mus musculus) (UniProt P35454); remark: listed apart in the source

Sequence of UniProt P35454 (P35454 whole entry, looked up): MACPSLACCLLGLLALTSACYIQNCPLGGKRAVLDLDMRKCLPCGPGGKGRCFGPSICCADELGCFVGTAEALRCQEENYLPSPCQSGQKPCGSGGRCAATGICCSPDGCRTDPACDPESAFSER

Row | Substance | pKd [1] | pKd [2]
1 | oxytocin receptor (from UniProt P97926) | 9.00 | 
2 | vasopressin V1a receptor (from UniProt Q62463) |  | 7.60
